Experiment [1] has as its target putative receptor proteins in brush border membrane vesicles (BBMV) from European corn borer (Ostrinia nubilalis) larval midgut (Ostrinia nubilalis). The experiment in a line: homologous competition: unlabeled Cry1Ab against 0.5 nM 125I Cry1Ab on ECB BBMV.
Experiment [2] has the same target. Put plainly: heterologous competition: unlabeled Cry2Aa at 1,000 nM against 0.5 nM 125I Cry1Ab on ECB BBMV.

As to “Cry1Ab protein (truncated Cry toxin) (from UniProt P0A370 29-612)”, the IC50 – broadly, the concentration that gives 50% inhibition – in experiment [1] was 3 nM.

Regarding “Cry2Aa protein (from UniProt P0A377 1-633)”, in experiment [2], the percent displacement of 125I Cry1Ab at 1,000 nM competitor was less than 50%.

For the origin of these results see patent US20130007924A1.
